The source of these data is US20060084085.

Series [1] has as its target recombinant Ku70/80 complex, P13010.
Series [2] deals with T1, Ku70 peptide 16 (amino acids 325-341).
T1 chain: RQIILEKEETEELKRFD

Series [3] deals with T2, peptide 29 variant that retained K542 (KRRR).
T2 chain: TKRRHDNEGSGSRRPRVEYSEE

Series [4] has as its target T3, peptide 29 variant that retained K553 (RRKR).
T3 chain: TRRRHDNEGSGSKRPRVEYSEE

The target in series [5] is T4, Ku70 peptide 29 (amino acids 541-562).
T4 chain: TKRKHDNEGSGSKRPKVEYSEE

The target in series [6] is T5, Ku70 peptide 15 (amino acids 310-322).
T5 chain: LLLPSDTKRSQIY

For series [7], the target named is T6, Ku70 peptide 8 (amino acids 157-173).
T6 chain: VQFKMSHKRIMLFTNED

Series [8] has as its target T7, Ku70 peptide 3 (amino acids 44-58).
T7 chain: ASKAMFESQSEDELT

In series [9] the target is acetylated Ku70-K331 peptide.
For series [10], the target named is T8, acetylated Ku70 K542 peptide PEGKVTK-AcRKHDNC.
T8 chain: PEGKVTKRKHDNC

Series [11] concerns the target T9, acetylated Ku70 K539 peptide DYNPEGK-AcVTKRKC.
T9 chain: DYNPEGKVTKRKC

Chain of recombinant Ku70/80 complex, P13010 (chain, as listed by the source, chain 1 of 2): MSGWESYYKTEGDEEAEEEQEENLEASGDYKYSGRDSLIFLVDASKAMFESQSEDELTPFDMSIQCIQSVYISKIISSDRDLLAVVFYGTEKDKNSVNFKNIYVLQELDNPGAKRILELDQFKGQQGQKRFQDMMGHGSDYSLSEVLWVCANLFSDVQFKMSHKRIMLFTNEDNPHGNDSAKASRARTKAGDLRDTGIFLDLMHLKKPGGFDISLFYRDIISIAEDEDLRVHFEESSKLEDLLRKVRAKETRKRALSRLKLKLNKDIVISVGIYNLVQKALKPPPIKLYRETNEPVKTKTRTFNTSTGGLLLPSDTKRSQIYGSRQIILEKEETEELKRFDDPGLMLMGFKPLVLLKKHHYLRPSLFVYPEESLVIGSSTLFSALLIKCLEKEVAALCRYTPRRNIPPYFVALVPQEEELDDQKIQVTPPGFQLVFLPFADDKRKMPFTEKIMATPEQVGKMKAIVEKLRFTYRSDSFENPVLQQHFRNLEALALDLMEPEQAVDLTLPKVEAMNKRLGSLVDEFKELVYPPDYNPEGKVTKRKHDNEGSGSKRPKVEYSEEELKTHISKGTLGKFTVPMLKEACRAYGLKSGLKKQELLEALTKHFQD
Chain of recombinant Ku70/80 complex, P13010 (P13010 whole entry, chain 2 of 2, the tested form may be a part): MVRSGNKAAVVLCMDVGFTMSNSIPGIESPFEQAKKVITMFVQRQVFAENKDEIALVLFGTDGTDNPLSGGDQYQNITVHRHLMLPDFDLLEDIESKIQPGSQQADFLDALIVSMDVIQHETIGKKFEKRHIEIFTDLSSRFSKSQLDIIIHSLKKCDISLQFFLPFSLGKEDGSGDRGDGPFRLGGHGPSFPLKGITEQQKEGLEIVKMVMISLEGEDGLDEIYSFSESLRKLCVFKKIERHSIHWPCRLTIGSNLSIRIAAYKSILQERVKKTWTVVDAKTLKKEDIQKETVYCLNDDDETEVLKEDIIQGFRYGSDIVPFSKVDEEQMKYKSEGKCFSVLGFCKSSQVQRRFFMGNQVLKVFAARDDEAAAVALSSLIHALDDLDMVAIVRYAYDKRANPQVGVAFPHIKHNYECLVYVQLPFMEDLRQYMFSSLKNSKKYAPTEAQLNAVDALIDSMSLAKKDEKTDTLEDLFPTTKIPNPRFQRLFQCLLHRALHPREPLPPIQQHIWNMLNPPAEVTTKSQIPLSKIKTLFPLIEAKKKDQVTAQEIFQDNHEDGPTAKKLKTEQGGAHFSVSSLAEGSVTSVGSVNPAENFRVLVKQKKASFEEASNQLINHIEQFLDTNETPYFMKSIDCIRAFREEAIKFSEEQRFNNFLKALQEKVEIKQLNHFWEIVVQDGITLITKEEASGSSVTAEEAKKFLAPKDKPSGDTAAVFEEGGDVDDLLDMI

B1: recombinant histone acetyltransferase (HAT) domain of p300 (protein)
chain: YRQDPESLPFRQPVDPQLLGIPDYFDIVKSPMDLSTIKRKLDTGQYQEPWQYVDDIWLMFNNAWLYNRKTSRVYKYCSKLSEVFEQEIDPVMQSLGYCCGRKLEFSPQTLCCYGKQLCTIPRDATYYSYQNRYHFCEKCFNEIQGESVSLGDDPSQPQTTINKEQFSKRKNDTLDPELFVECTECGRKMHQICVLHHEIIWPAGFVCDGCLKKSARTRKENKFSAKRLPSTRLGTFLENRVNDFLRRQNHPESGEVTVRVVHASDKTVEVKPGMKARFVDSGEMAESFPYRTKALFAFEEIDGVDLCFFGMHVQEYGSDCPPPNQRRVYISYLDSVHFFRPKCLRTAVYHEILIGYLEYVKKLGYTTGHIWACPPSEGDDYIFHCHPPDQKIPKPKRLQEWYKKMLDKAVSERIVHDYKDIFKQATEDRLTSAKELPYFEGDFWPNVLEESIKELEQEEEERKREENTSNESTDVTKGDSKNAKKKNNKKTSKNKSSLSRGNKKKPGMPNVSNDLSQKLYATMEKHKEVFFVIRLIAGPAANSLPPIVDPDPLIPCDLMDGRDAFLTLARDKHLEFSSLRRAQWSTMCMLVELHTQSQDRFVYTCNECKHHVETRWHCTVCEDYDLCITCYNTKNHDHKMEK
As to B1, the “in vitro acetylation (3H-acetyl-CoA, SDS-PAGE, autoradiography)” value in series [1] is on record as “a strongly labeled band corresponding to the size of Ku70 was observed in each of the complete acetyltransferase reactions”.

B2: recombinant histone acetyltransferase (HAT) domain of CBP (protein)
chain: LEALYRQDPESLPFRQPVDPQLLGIPDYFDIVKNPMDLSTIKRKLDTGQYQEPWQYVDDVWLMFNNAWLYNRKTSRVYKFCSKLAEVFEQEIDPVMQSLGYCCGRKYEFSPQTLCCYGKQLCTIPRDAAYYSYQNRYHFCEKCFTEIQGENVTLGDDPSQPQTTISKDQFEKKKNDTLDPEPFVDCKECGRKMHQICVLHYDIIWPSGFVCDNCLKKTGRPRKENKFSAKRLQTTRLGNHLEDRVNKFLRRQNHPEAGEVFVRVVASSDKTVEVKPGMKSRFVDSGEMSESFPYRTKALFAFEEIDGVDVCFFGMHVQEYGSDCPPPNTRRVYISYLDSIHFFRPRCLRTAVYHEILIGYLEYVKKLGYVTGHIWACPPSEGDDYIFHCHPPDQKIPKPKRLQEWYKKMLDKAFAERIIHDYKDIFKQATEDRLTSAKELPYFEGDFWPNVLEESIKELEQEEEERKKEESTAASETTEGSQGDSKNAKKKNNKKTNKNKSSISRANKKKPSMPNVSNDLSQKLYATMEKHKEVFFVIHLHAGPVINTLPPIVDPDPLLSCDLMDGRDAFLTLARDKHWEFSSLRRSKWSTLCMLVELHTQGQDRFVYTCNECKHHVETRWHCTVCEDYDLCINCYNTKSHAHKMVKWGLGLDDEGSSQGE
Regarding B2, in series [1], the “in vitro acetylation (3H-acetyl-CoA, SDS-PAGE, autoradiography)” value is recorded as “a strongly labeled band corresponding to the size of Ku70 was observed in each of the complete acetyltransferase reactions; Based on the intensity of the bands, CBP has the strongest preference for Ku70”. In addition, the “in vitro acetylation of Ku70 peptides” value in [2] was “only two (16 and 29) were strongly acetylated by both PCAF and CBP”; in [5] it was “only two (16 and 29) were strongly acetylated by both PCAF and CBP”. Moreover, the “in vitro acetylation of peptide 29 variants” value is “the peptide that retained K542 (KRRR) was the preferred target of both PCAF and CBP and was acetylated to almost the same extent as the original peptide 29 (KKKK)” in series [3]; “K553 (RRKR) was also weakly acetylated by PCAF and CBP” in series [4].

B3: recombinant histone acetyltransferase (HAT) domain of PCAF (protein)
chain: MLEEEVYSQNSPIWDQDFLSASSRTSQLGIQTVINPPPVAGTISYNSTSSSLEQPNAGSSSPACKASSGLEANPGEKRKMTDSHVLEEAKKPRVMGDIPMELINEVMSTITDPAAMLGPETNFLSAHSARDEAARLEERRGVIEFHVVGNSLNQKPNKKILMWLVGLQNVFSHQLPRMPKEYITRLVFDPKHKTLALIKDGRVIGGICFRMFPSQGFTEIVFCAVTSNEQVKGYGTHLMNHLKEYHIKHDILNFLTYADEYAIGYFKKQGFSKEIKIPKTKYVGYIKDYEGATLMGCELNPRIPYTEFSVIIKKQKEIIKKLIERKQAQIRKVYPGLSCFKDGVRQIPIESIPGIRETGWKPSGKEKSKEPRDPDQLYSTLKSILQQVKSHQSAWPFMEPVKRTEAPGYYEVIRFPMDLKTMSERLKNRYYVSKKLFMADLQRVFTNCKEYNPPESEYYKCANILEKFFFSKIKEAGLIDK
In the case of B3, in series [1], the “in vitro acetylation (3H-acetyl-CoA, SDS-PAGE, autoradiography)” value is reported as “a strongly labeled band corresponding to the size of Ku70 was observed in each of the complete acetyltransferase reactions”. In addition, the “Relative Intensity of Acetylation” value was “+++” in [2]; “+++” in series [6]; “++” in [7]; “+” in [8]; “+++++” in [5]. Also, the “in vitro acetylation of peptide 29 variants” value in series [3] is “the peptide that retained K542 (KRRR) was the preferred target of both PCAF and CBP and was acetylated to almost the same extent as the original peptide 29 (KKKK)”; in series [4] it was “K553 (RRKR) was also weakly acetylated by PCAF and CBP”.

B4: human SIRT1 (protein)
chain: MADEAALALQPGGSPSAAGADREAASSPAGEPLRKRPRRDGPGLERSPGEPGGAAPEREVPAAARGCPGAAAAALWREAEAEAAAAGGEQEAQATAAAGEGDNGPGLQGPSREPPLADNLYDEDDDDEGEEEEEAAAAAIGYRDNLLFGDEIITNGFHSCESDEEDRASHASSSDWTPRPRIGPYTFVQQHLMIGTDPRTILKDLLPETIPPPELDDMTLWQIVINILSEPPKRKKRKDINTIEDAVKLLQECKKIIVLTGAGVSVSCGIPDFRSRDGIYARLAVDFPDLPDPQAMFDIEYFRKDPRPFFKFAKEIYPGQFQPSLCHKFIALSDKEGKLLRNYTQNIDTLEQVAGIQRIIQCHGSFATASCLICKYKVDCEAVRGDIFNQVVPRCPRCPADEPLAIMKPEIVFFGENLPEQFHRAMKYDKDEVDLLIVIGSSLKVRPVALIPSSIPHEVPQILINREPLPHLHFDVELLGDCDVIINELCHRLGGEYAKLCCNPVKLSEITEKPPRTQKELAYLSELPPTPLHVSEDSSSPERTSPPDSSVIVTLLDQAAKSNDDLDVSESKGCMEEKPQEVQTSRNVESIAEQMENPDLKNVGSSTGEKNERTSVAGTVRKCWPNRVAKEQISRRLDGNQYLFLPPNRYIFHGAEVYSDSEDDVLSSSSCGSNSDSGTCQSPSLEEPMEDESEIEEFYNGLEDEPDVPERAGGAGFGTDGDDQEAINEAISVKQEVTDMNYPSNKS
As to B4, the “deacetylation of acetylated Ku70 peptide by SIRT1” value in series [9] is “this residue is acetylated in vivo, but is both a poor substrate of SIRT1 (FIG. 8D) and plays no apparent role in Bax-mediated apoptosis in vivo”. Also, the “deacetylation of acetylated Ku70 peptide by recombinant SIRT1 (slot blot with pan-acetyl-lysine antibody; fluorogenic peptide assay)” value in series [10] and in [11] was “SIRT1 efficiently deacetylated the two lysines in the C-terminus of Ku70 that are critical for regulating Bax” each time.
